Details in all cases: tags: endogenous on Ramos Burkitt's lymphoma cells; label: 5' FITC or Cy3; stem-loop hairpin
The target of series [1] is T1, membrane-bound IgM (mIgM, immunoglobulin heavy mu chain of B-cell receptor) (Homo sapiens, UniProt P01871 P01871:1-474). The experiment in a line: flow; Bmax/2 on Ramos cells, 4 C, 5 mM MgCl2. How it is done:
(§1) All the in vitro experiments were done using a binding buffer composed of RPMI 1640 and 4.5 g/L glucose (Sigma-Aldrich) and 5 mM MgCl₂ for monomers, 20 mM MgCl₂ for multimers (Sigma-Aldrich), 100 mg/L tRNA (Sigma-Aldrich), 100 mg/L single stranded DNA (Sigma-Aldrich), 100 mg/L BSA (Sigma-Aldrich) and binding was analyzed for binding using flow cytometry in binding buffer (Acurri C6) using binding buffer. We used 20 mM Mg⁺² for optimal for the folding of the aptamer in vitro and 5 mM Mg⁺² for experiments in vivo. The binding buffer consists of tRNA and single stranded DNA that are capable of scavenging Mg⁺² thereby reducing the effective concentration of Mg ions. […]
(§2) Cell Binding Assays. Affinity of each construct was evaluated by incubating Ramos cells (2.5×10⁵) with a series of FITC or Cy3 labeled constructs in a 50 μL of binding buffer on ice for 45 min Cells were then washed with lmL of wash buffer at 4° C. and resuspended in 100 μL of wash buffer. The binding of the constructs was analyzed using flow cytometry by counting 10,000 events for each concentration. […] Binding at respective concentrations and absolute fluorescence intensity difference was used for the binding curves. When calculating the relative binding constant, binding curves were fitted with median fluorescence intensity observed for each histogram and observed Bmax/2 was used as the binding constant. […]

The target in series [2] is T1, membrane-bound IgM (mIgM, …). Kind of series: flow; Bmax/2 on Ramos cells, 4 C. How it is done:
as §1, §2

For series [3] the target is unchanged. The experiment in a line: flow; Bmax/2 (Kd') on Ramos cells, 4 C, 5 mM MgCl2. How it is done: as §1, §2

T1 sequence (P01871 whole entry, one chain of several): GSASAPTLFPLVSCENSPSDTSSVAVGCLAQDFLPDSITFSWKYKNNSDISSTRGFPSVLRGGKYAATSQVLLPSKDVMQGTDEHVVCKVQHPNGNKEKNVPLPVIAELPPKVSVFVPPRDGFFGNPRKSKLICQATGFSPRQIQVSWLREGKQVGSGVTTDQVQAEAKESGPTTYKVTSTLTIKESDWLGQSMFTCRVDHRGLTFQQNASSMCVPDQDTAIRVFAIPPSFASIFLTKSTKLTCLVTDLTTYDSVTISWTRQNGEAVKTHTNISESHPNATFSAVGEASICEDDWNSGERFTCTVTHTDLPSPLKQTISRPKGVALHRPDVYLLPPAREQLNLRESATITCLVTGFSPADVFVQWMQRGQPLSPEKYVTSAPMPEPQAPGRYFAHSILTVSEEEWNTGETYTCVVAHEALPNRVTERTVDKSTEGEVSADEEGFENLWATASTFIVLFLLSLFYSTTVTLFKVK

B1: TD05.1 (ssDNA)
DNA: AGGAGGATAGTTCGGTGGCTGTTCAGGGTCTCCTCCT
As usually defined, the Kd is the equilibrium constant for the complex coming apart. In turn, B1 returned a Kd in series [1] of 53 nM.

B2: TD05.17 (ssDNA)
DNA: AGGAGGATAGTTCGGTGGCTGTTCAGGGTCTCCTCCT
modifications: LNA at last four nucleotides (3' stem pyrimidines TCCT) [34,35,36,37 (LNA)]
With B2, in series [2], binding was put at a Kd of 43 nM.

B3: TD05.7 (ssDNA)
DNA: CGTGGAGGATAGTTCGGTGGCTTCAGGGTCTCCTCCCG
In series [1], B3 returned a Kd of 148 nM.

B4: TD05 (ssDNA)
DNA: ACCGTGGAGGATAGTTCGGTGGCTGTTCAGGGTCTCCTCCACGGT
In the case of B4, the Kd in series [3] worked out at 359 nM.

Source of the values: patent publication US20120225088, “COMPOSITIONS AND METHODS FOR TREATING CANCER AND OTHER DISEASES” (published 2012).
